From the RNAGym collection of RNA variant scans (doi:10.1073/pnas.2313332121) come the findings set out here.

Fewer inactive variants are shown than the library holds. Bounds are passed on as bounds.

B1: TPR 5TU (parent)
chain: GGAUCUUCUCGAUCUAACAAAAAAGACAAAUCUGCCACAAAGCUUGAGAGCAUCUUCGGAUGCAGAGGCGGCAGCCUUCGGUGGCGCGAUAGCGCCAACGUUCUCAACUAUGACACGCAAAACGCGUGCUCCGUUGAAUGGAGUUUAUCAUG

The variants in the series derive from B1. Kind of series: polymerase ribozyme fitness, log enrichment relative to wild type (log ratio); higher = more active; in vitro selection for triplet polymerase activity. The method, boiled down:
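A single round of triplicate in vitro selection, including frozen incubation at −7 °C, was applied to PCR-built, transcribed mutant libraries of each subunit of a heterodimeric triplet polymerase ribozyme. Illumina sequencing of input and output libraries retained genotypes with ≥10 input reads and ≥1 read per output. Fitness is the base-2 logarithm of genotype enrichment divided by wild-type enrichment, from inverse-variance-weighted replicate averages.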
For the variant C27U U53A U61A C69G G88C, the “polymerase ribozyme fitness (log ratio)” value was not above -4.2.

For C27G G94C G136U, the “polymerase ribozyme fitness (log ratio)” value was not above -4.2.

As to C27U A47C, the “polymerase ribozyme fitness (log ratio)” value is -1.01.

Take A28U U53G A66G C69A C79G G94C C108G C129U A137U: the “polymerase ribozyme fitness (log ratio)” value was not above -4.2.

As for A29C C54U C85U, the “polymerase ribozyme fitness (log ratio)” value was not above -4.2.

Turning to A28C G59U A91G U135C, the “polymerase ribozyme fitness (log ratio)” value was not above -4.2.

With A28G G34A G83C C118G, the “polymerase ribozyme fitness (log ratio)” value is not above -4.2.

C27U C63G C95U C96U C99G: the “polymerase ribozyme fitness (log ratio)” value was -3.33.

Consider C27U C75G U78A C85U U148G, for which the “polymerase ribozyme fitness (log ratio)” value was not above -4.2.

Consider A28C C32U A52U U53G C93A G112C G143U, for which the “polymerase ribozyme fitness (log ratio)” value is not above -4.2.

With A28U A37C C87A G117A G140C, the “polymerase ribozyme fitness (log ratio)” value was not above -4.2.

For C27U U55A G70C A91U A97U A106G, the “polymerase ribozyme fitness (log ratio)” value was not above -4.2.

For the variant C27U C43A C75U C96U C105A, the “polymerase ribozyme fitness (log ratio)” value is not above -4.2.

Consider A28U A49C C103G, for which the “polymerase ribozyme fitness (log ratio)” value is not above -4.2.

For the variant A29C G50C C114U, the “polymerase ribozyme fitness (log ratio)” value was not above -4.2.

Consider A28C G58U A113G A119U, for which the “polymerase ribozyme fitness (log ratio)” value is not above -4.2.

For the variant A28C A30C A41U C57U A107C, the “polymerase ribozyme fitness (log ratio)” value was not above -4.2.

Regarding A29C A49G C87A A150G, the “polymerase ribozyme fitness (log ratio)” value was not above -4.2.

As to C27U C57A C87A A115U, the “polymerase ribozyme fitness (log ratio)” value is not above -4.2.

With A28C A41C C95A G128A G140C G143A, the “polymerase ribozyme fitness (log ratio)” value was not above -4.2.

For the variant A28U C54G C72U, the “polymerase ribozyme fitness (log ratio)” value was not above -4.2.

Turning to A28C C54A C95A C105U U145A, the “polymerase ribozyme fitness (log ratio)” value was not above -4.2.

For C27U A97G C131A U151C, the “polymerase ribozyme fitness (log ratio)” value is not above -4.2.

Take C27U G84A: the “polymerase ribozyme fitness (log ratio)” value is -1.66.

A28U A60C C87A C96U: the “polymerase ribozyme fitness (log ratio)” value is not above -4.2.

Turning to A29C A41U G81C G86C C105G A106U, the “polymerase ribozyme fitness (log ratio)” value was not above -4.2.

As for A28U U61G C87G, the “polymerase ribozyme fitness (log ratio)” value is -4.14.

Turning to A28G G58U, the “polymerase ribozyme fitness (log ratio)” value is not above -4.2.

Take A28C C51A C76G G83C A110U U127G: the “polymerase ribozyme fitness (log ratio)” value is not above -4.2.

In the case of C27U G92C U146C U151G, the “polymerase ribozyme fitness (log ratio)” value is not above -4.2.

C27U A41G A47C U53A U78C C93A A110U: the “polymerase ribozyme fitness (log ratio)” value was not above -4.2.

Regarding A28U G80A A91U, the “polymerase ribozyme fitness (log ratio)” value is not above -4.2.

With A28G A60C C76G, the “polymerase ribozyme fitness (log ratio)” value was not above -4.2.

For C27U G46A C75A A91U G94A, the “polymerase ribozyme fitness (log ratio)” value is not above -4.2.

As to A28C A60G C69U G74A U135G A138U G141U, the “polymerase ribozyme fitness (log ratio)” value was not above -4.2.

With C27U G62U A120C A122U, the “polymerase ribozyme fitness (log ratio)” value is -2.46.

Regarding C27G U45A G48U A91C, the “polymerase ribozyme fitness (log ratio)” value was not above -4.2.

Regarding C27G U44G U77G G83C A89U, the “polymerase ribozyme fitness (log ratio)” value is not above -4.2.

For the variant A28U A66U A73G G86U C103G C116U G152U, the “polymerase ribozyme fitness (log ratio)” value was not above -4.2.

In the case of C27U A29C G58C C85A U145A, the “polymerase ribozyme fitness (log ratio)” value is not above -4.2.

Turning to A28G C93U C105G, the “polymerase ribozyme fitness (log ratio)” value was not above -4.2.

Regarding A28U A47C, the “polymerase ribozyme fitness (log ratio)” value is -3.9.

Regarding A28U G58U C79G G92U, the “polymerase ribozyme fitness (log ratio)” value is not above -4.2.

Consider A28C G80C U82G G88C U130C, for which the “polymerase ribozyme fitness (log ratio)” value is not above -4.2.

On to C27U G58A C96U C116U C118G U144G, for which the “polymerase ribozyme fitness (log ratio)” value was -0.836.

For A28U U56A G81A C95U, the “polymerase ribozyme fitness (log ratio)” value is not above -4.2.

A28C U56A C57A G68A C76A G88U G94A A138C: the “polymerase ribozyme fitness (log ratio)” value was not above -4.2.

As to C27U U31G U55G G94C A113C, the “polymerase ribozyme fitness (log ratio)” value is not above -4.2.

For the variant A28U G42C A52C G100C G117C, the “polymerase ribozyme fitness (log ratio)” value is not above -4.2.

As for A28U C32G A41U A73G C85G G88U G136A, the “polymerase ribozyme fitness (log ratio)” value is not above -4.2.

On to A29C C35A, for which the “polymerase ribozyme fitness (log ratio)” value is -3.91.

Consider A28C U78G C96G U148G, for which the “polymerase ribozyme fitness (log ratio)” value was not above -4.2.

A28C A52U U55G C87G C125U G152A: the “polymerase ribozyme fitness (log ratio)” value is not above -4.2.

For the variant C27U G94A, the “polymerase ribozyme fitness (log ratio)” value was -2.73.

In the case of C27U C95U, the “polymerase ribozyme fitness (log ratio)” value is -2.39.

With A28U G65U U82G U101G C103A G152U, the “polymerase ribozyme fitness (log ratio)” value is not above -4.2.

Take C27U U61G A64U C96U: the “polymerase ribozyme fitness (log ratio)” value was not above -4.2.

As to C27U C95U U102A, the “polymerase ribozyme fitness (log ratio)” value was -2.66.

In the case of A29C C51G C57G G92C A107C A110C G124A U145A U151G, the “polymerase ribozyme fitness (log ratio)” value is not above -4.2.

As for A28C C51U C57A A73U C87G U101G A121U, the “polymerase ribozyme fitness (log ratio)” value was not above -4.2.

For the variant A28C C35U G124A G141U, the “polymerase ribozyme fitness (log ratio)” value is not above -4.2.

For A28C G80C C87G, the “polymerase ribozyme fitness (log ratio)” value was not above -4.2.

Consider C27U C54U G83U, for which the “polymerase ribozyme fitness (log ratio)” value is -2.12.

For C27U, the “polymerase ribozyme fitness (log ratio)” value is -1.13.

Regarding A28U A29U G65A C95G C105G U111G A137C G152C, the “polymerase ribozyme fitness (log ratio)” value was not above -4.2.

As for A28G A29U C87G C96A, the “polymerase ribozyme fitness (log ratio)” value is not above -4.2.

As for A28C G34A C38G C72U C76A C96G U151A, the “polymerase ribozyme fitness (log ratio)” value is not above -4.2.

For A28U A41C G88C, the “polymerase ribozyme fitness (log ratio)” value was not above -4.2.

In the case of C27U A39G A40C C69A U77C G94U C95A C116U G140U, the “polymerase ribozyme fitness (log ratio)” value was not above -4.2.

With A28G U53G C85A U104G A106G A138U A147G, the “polymerase ribozyme fitness (log ratio)” value is not above -4.2.

Take A28G C36U: the “polymerase ribozyme fitness (log ratio)” value is not above -4.2.

For C27U A28C U44G A52C C93A, the “polymerase ribozyme fitness (log ratio)” value was -4.1.

On to A28U A30C C79A, for which the “polymerase ribozyme fitness (log ratio)” value was not above -4.2.

As to C27U A41C A52C C54G C95G U102A, the “polymerase ribozyme fitness (log ratio)” value was not above -4.2.

In the case of A29C A41U G83A A138U, the “polymerase ribozyme fitness (log ratio)” value is not above -4.2.

For the variant C27U A91G A147C G152U, the “polymerase ribozyme fitness (log ratio)” value is not above -4.2.

As to C27U G86U C99G, the “polymerase ribozyme fitness (log ratio)” value was not above -4.2.

Turning to C27G U33C G68U, the “polymerase ribozyme fitness (log ratio)” value is not above -4.2.

Regarding A28U C76G G92U, the “polymerase ribozyme fitness (log ratio)” value was not above -4.2.

Take A28C A30U A60C C75A C76U C93A C95G: the “polymerase ribozyme fitness (log ratio)” value was not above -4.2.

For the variant A28G A29U C43G A47C G84U A110U, the “polymerase ribozyme fitness (log ratio)” value was not above -4.2.

Regarding A28G G50C A122G U145C U148A, the “polymerase ribozyme fitness (log ratio)” value was not above -4.2.

With A28C A30U G86A, the “polymerase ribozyme fitness (log ratio)” value was not above -4.2.
